We go through one molecule from article PMC11516162, “A Novel Antigen Design Strategy to Isolate Single‐Domain Antibodies that Target Human Nav1.7 and Reduce Pain in Animal Models” (Advanced Science, 2024).

Experiment [1] addresses mouse Nav1.7 (mouse (endogenous in CD-1 mice)) (UniProt Q62205).
Experiment [2] has as its target rat, mouse and human FC5‐DIE3IR. Put plainly: SPR; Biacore T200, 25 °C, HBS‐EP+ (10 mM HEPES pH 7.4, 150 mM NaCl, 3 mM EDTA, 0.05% P20); FC5‐DIE3IR and FC5 amine coupled (300–400 RU) on CM5; VHH DI‐D monomer fractions flowed at 312 nM to 5 µM, single cycle kinetics; KD by steady state analysis. Background: In SPR one partner is held on a chip, and binding of the other changes the refractive index at the surface.

Experiment [3] deals with T1, human FC5‐DIE3IR (Homo sapiens, chimera, glycosylated (about up to 50%)).
T1 construct: llama VHH FC5 from its N-terminus to residue 101 (three CDR3 residues kept on the N-terminal side of the graft); human Nav1.7 alpha subunit, 70 residues of extracellular loop 3 of domain DI (DIE3IR), put in place of Ser102-Leu107 of the CDR3 of FC5; llama VHH FC5 from residue 108 to its C-terminus (four CDR3 residues kept on the C-terminal side of the graft); Two disulfide bonds in the grafted …
The description is as above. The conditions noted are these: both partners purified.

Another experiment deals with T2, rat FC5‐DIE3IR (Rattus norvegicus, UniProt O08562, chimera).
T2 construct: llama VHH FC5 N-terminal part, as the first part of m2; rat Nav1.7 alpha subunit, the stretch equivalent to the human DIE3IR domain; llama VHH FC5 C-terminal part, as the last part of m2; source: cloned as the human one (pTT5); SEC purified (Superdex 75) for SPR
The description is as above. Conditions: both partners purified.

A further experiment addresses T3, mouse FC5‐DIE3IR (Mus musculus, UniProt Q62205, chimera).
T3 construct: llama VHH FC5 N-terminal part, as the first part of m2; mouse Nav1.7 alpha subunit, the stretch equivalent to the human DIE3IR domain; llama VHH FC5 C-terminal part, as the last part of m2; source: cloned as the human one (pTT5); SEC purified (Superdex 75) for SPR
Described as above. The conditions noted are these: both partners purified.

The target in experiment [4] is T1, human FC5‐DIE3IR. Put plainly: SPR; Biacore T200, 25 °C, HBS-EP+ (10 mM HEPES pH 7.4, 150 mM NaCl, 3 mM EDTA, 0.05% P20); FC5-DIE3IR (human, mouse, rat) and FC5 amine coupled (300-400 RU) on CM5; SEC-purified monomeric VHH DI-D flowed over at 312 nM to 5 µM, single cycle kinetics; KD by steady state analysis.
The target of experiment [5] is Mouse FC5-DIE3IR (llama | mouse). Described as above.
The target of experiment [6] is Rat FC5-DIE3IR (llama | rat). The description is as above.
Experiment [7] has as its target T1, human FC5‐DIE3IR. The experiment is described as above. The source holds these as a separate data set.
Experiment [8] concerns the target Mouse FC5-DIE3IR (llama | mouse). The experiment is described as above. The source holds these as a separate data set.
For experiment [9], the target named is Rat FC5-DIE3IR (llama | rat). The experiment is described as above. This is another data set of the same source.
The target of experiment [10] is T1, human FC5‐DIE3IR. The description is as above. The source holds these as a separate data set.
Experiment [11] deals with Mouse FC5-DIE3IR (llama | mouse). The description is as above. This is another data set of the same source.

In general, Kd refers to the free concentration of one partner at which half of the binding sites on the other are occupied at equilibrium, for simple one-to-one binding. A lower Kd goes with higher affinity.

Read-outs that look alike come from different tables or passages of the source.

B1: VHH DI‐D (VHH)
VHH: QVKLEESGGGLVQPGGSLKLSCVASGFAFSSAPMDWVRKAPGKDVEWLSTIESDQDHTIYYANSVKGRFTISRDDVQNILYLQMNDLKIEDTATYYCQKRGEKKTRGQGTQVTVSS
notes: CDR3 of VHH DI-D as printed in the discussion; Isolated from a naive llama, alpaca and camel phage library (LAC-M) by panning on FC5-DIE3IR; source: E. coli, purified by IMAC (gene synthesized and cloned by GenScript; pSJF2 expression vector); SEC-purified monomer fractions for SPR
B1 registered a time mice spend in pain behaviors, mouse OD1 model, VHH DI‐D (50 µg) pre‐mixed 30 min with FC5‐DIE3IR (200 µg): no reduction in experiment [1] of 312 s. In addition, the Kd was 1560 to 1720 nM in [2]; 1700 nM in the experiment with human FC5‐DIE3IR [4]; 1660 nM in [5]; 1560 nM in experiment [6]; 1720 nM with human FC5‐DIE3IR [7]; 1700 nM in experiment [8]. The values for the Kd (in experiment [9]; in the experiment with human FC5‐DIE3IR [10]; in [11]) were 1590 nM, 1710 nM and 1680 nM, respectively. The binding result with human FC5‐DIE3IR [3], with rat FC5‐DIE3IR and with mouse FC5‐DIE3IR was “binds” in each case.
